Publication PMC3062784 (Biochimica et Biophysica Acta, 2011)
Where “and” joins values, the source holds several entries; their conditions need not be identical. Equal entries are not always repeated.

Tests used:
native gel or EMSA = molecular target: the molecule itself; assay: native gel or EMSA
cross-linking = molecular target: the molecule itself; assay: cross-linking

B1: C-terminally triple HA-tagged Pun1p expressed via the MET25 promoter from plasmid YEpM-PUN1-HA (natural protein, S. cerevisiae, UniProt Q06991 1-263, looked up)
chain: MRNFFTLFFAAIFSLGALILAIVACAGSTKNYSPINKIYCAELDLSQMKVSTVLPSLSSATLSSLGLPSYINIGLWSYCTVDSSHNIQSCSSPHGIQNFNLSSLVYDNINNNEALELMDSVASVVLPEKLKSKMTYYNNLVKCMFITILIGIVLTFVNLVFNVLRWIIHIRPLTWFGAFFSFFAFAALLVSIGSCLGTYSYIKYILKHNYSDYGISMSIGRNYQGLMWGAVVGALLNFILWCSVRSRPTVIYANAPIEEKPLI
- stoichiometry N (native gel or EMSA): 10 and 12 and 8
- stoichiometry N (cross-linking): 2 and 4 and 6
